From article PMC12808100, “The non-catalytic DNA polymerase ε subunit is an NPF motif recognition protein” (Nature Communications, 2025)

Assays:
[1] = target: His6-AviTag-MBP-TEV-POLE2, P56282; assay: nHU titration, dot blot; details: chain shown with the change
[2] = target: triple NPF motif peptide made from the DONSON sequence (human); assay: native holdup (nHU) titration with western blot; biotinylated peptide bait on streptavidin resin, bait-saturated and control (biotin) resin mixed at various proportions; total Jurkat extract as analyte; 4 °C, 2 h; endogenous POLE and EPS15 left in the supernatant quantified by western blot; apparent dissociation constants

His6-AviTag-MBP-TEV-POLE2, P56282, sequence (P56282 whole entry): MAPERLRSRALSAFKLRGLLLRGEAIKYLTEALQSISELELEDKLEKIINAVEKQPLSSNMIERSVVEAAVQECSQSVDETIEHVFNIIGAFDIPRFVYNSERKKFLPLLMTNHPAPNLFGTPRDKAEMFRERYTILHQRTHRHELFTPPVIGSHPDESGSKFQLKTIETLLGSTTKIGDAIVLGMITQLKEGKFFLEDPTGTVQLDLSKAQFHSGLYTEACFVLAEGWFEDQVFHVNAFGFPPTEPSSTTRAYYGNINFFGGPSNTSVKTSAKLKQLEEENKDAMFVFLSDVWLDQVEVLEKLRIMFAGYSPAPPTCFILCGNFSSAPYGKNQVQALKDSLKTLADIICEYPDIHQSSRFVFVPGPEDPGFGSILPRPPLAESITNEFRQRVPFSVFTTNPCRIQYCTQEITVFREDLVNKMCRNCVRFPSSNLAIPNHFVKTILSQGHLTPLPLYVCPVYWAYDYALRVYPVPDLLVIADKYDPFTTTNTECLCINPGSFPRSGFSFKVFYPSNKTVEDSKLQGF

Kd [1]	Kd [2]	Binder
32 µM	–	HA-WDHD1, full length, intact NPF motif, O75717 NPF to KAF (protein) MPATRKPMRYGHTEGHTEVCFDDSGSFIVTCGSDGDVRIWEDLDDDDPKFINVGEKAYSCALKSGKLVTAVSNNTIQVHTFPEGVPDGILTRFTTNANHVVFNGDGTKIAAGSSDFLVKIVDVMDSSQQKTFRGHDAPVLSLSFDPKDIFLASASCDGSVRVWQISDQTCAISWPLLQKCNDVINAKSICRLAWQPKSGKLLAIPVEKSVKLYRRESWSHQFDLSDNFISQTLNIVTWSPCGQYLAAGSINGLIIVWNVETKDCMERVKHEKGYAICGLAWHPTCGRISYTDAEGNLGLLENVCDPSGKTSSSKVSSRVEKDYNDLFDGDDMSNAGDFLNDNAVEIPSFSKGIINDDEDDEDLMMASGRPRQRSHILEDDENSVDISMLKTGSSLLKEEEEDGQEGSIHNLPLVTSQRPFYDGPMPTPRQKPFQSGSTPLHLTHRFMVWNSIGIIRCYNDEQDNAIDVEFHDTSIHHATHLSNTLNYTIADLSHEAILLACESTDELASKLHCLHFSSWDSSKEWIIDLPQNEDIEAICLGQGWAAAATSALLLRLFTIGGVQKEVFSLAGPVVSMAGHGEQLFIVYHRGTGFDGDQCLGVQLLELGKKKKQILHGDPLPLTRKSYLAWIGFSAEGTPCYVDSEGIVRMLNRGLGNTWTPICNTREHCKGKSDHYWVVGIHENPQQLRCIPCKGSRFPPTLPRPAVAILSFKLPYCQIATEKGQMEEQFWRSVIFHNHLDYLAKNGYEYEESTKNQATKEQQELLMKMLALSCKLEREFRCVELADLMTQNAVNLAIKYASRSRKLILAQKLSELAVEKAAELTATQVEEEEEEEDFRKKLNAGYSNTATEWSQPRFRNQVEEDAEDSGEADDEEKPEIHKPGQNSFSKSTNSSDVSAKSGAVTFSSQGRVKAFKVSASSKEPAMSMNSARSTNILDNMGKSSKKSTALSRTTNNEKSPIIKPLIPKPKPKQASAASYFQKRNSQTNKTEEVKEENLKNVLSETPAICPPQNTENQRPKTGFQMWLEENRSNILSDNPDFSDEADIIKEGMIRFRVLSTEERKVWANKAKGETASEGTEAKKRKRVVDESDETENQEEKAKENLNLSKKQKPLDFSTNQKLSAFAFKQE
–	0.8 µM	EPS15 (natural protein) MAAAAQLSLTQLSSGNPVYEKYYRQVDTGNTGRVLASDAAAFLKKSGLPDLILGKIWDLADTDGKGILNKQEFFVALRLVACAQNGLEVSLSSLNLAVPPPRFHDTSSPLLISGTSAAELPWAVKPEDKAKYDAIFDSLSPVNGFLSGDKVKPVLLNSKLPVDILGRVWELSDIDHDGMLDRDEFAVAMFLVYCALEKEPVPMSLPPALVPPSKRKTWVVSPAEKAKYDEIFLKTDKDMDGFVSGLEVREIFLKTGLPSTLLAHIWSLCDTKDCGKLSKDQFALAFHLISQKLIKGIDPPHVLTPEMIPPSDRASLQKNIIGSSPVADFSAIKELDTLNNEIVDLQREKNNVEQDLKEKEDTIKQRTSEVQDLQDEVQRENTNLQKLQAQKQQVQELLDELDEQKAQLEEQLKEVRKKCAEEAQLISSLKAELTSQESQISTYEEELAKAREELSRLQQETAELEESVESGKAQLEPLQQHLQDSQQEISSMQMKLMEMKDLENHNSQLNWCSSPHSILVNGATDYCSLSTSSSETANLNEHVEGQSNLESEPIHQESPARSSPELLPSGVTDENEVTTAVTEKVCSELDNNRHSKEEDPFNVDSSSLTGPVADTNLDFFQSDPFVGSDPFKDDPFGKIDPFGGDPFKGSDPFASDCFFRQSTDPFATSSTDPFSAANNSSITSVETLKHNDPFAPGGTVVAASDSATDPFASVFGNESFGGGFADFSTLSKVNNEDPFRSATSSSVSNVVITKNVFEETSVKSEDEPPALPPKIGTPTRPCPLPPGKRSINKLDSPDPFKLNDPFQPFPGNDSPKEKDPEIFCDPFTSATTTTNKEADPSNFANFSAYPSEEDMIEWAKRESEREEEQRLARLNQQEQEDLELAIALSKSEISEA
1.1 µM	–	HA-TTF2, full length, intact NPF motifs, Q9UNY4 NPF to KAF (protein) MEEVRCPEHGTFCFLKTGVRDGPNKGKSFYVCRADTCSFVRATDIPVSHCLLHEDFVVELQGLLLPQDKKEYRLFFRCIRSKAEGKRWCGSIPWQDPDSKEHSVSNKSQHASETFHHSSNWLRKAFKVLDKNQEPALWKQLIKGEGEEKKADKKQREKGDQLFDQKKEQKPEMMEKDLSSGLVPKKKQSVVQEKKQEEGAEIQCEAETGGTHKRDFSEIKSQQCQGNELTRPSASSQEKSSGKSQDVQRESEPLREKVTQLLPQNVHSHNSISKPQKGGPLNKEYTNWEAKETKAKDGPSIQATQKSLPQGHFQERPETHSVPAPGGPAAQAAPAAPGLSLGEGREAATSSDDEEEDDVVFVSSKPGSPLLFDSTLDLETKENLQFPDRSVQRKVSPASGVSKKVEPSDPVARRVYLTTQLKQKKSTLASVNIQALPDKGQKLIKQIQELEEVLSGLTLSPEQGTNEKSNSQVPQQSHFTKTTTGPPHLVPPQPLPRRGTQPVGSLELKSACQVTAGGSSQCYRGHTNQDHVHAVWKITSEAIGQLHRSLESCPGETVVAEDPAGLKVPLLLHQKQALAWLLWRESQKPQGGILADDMGLGKTLTMIALILTQKNQEKKEEKEKSTALTWLSKDDSCDFTSHGTLIICPASLIHHWKNEVEKRVNSNKLRVYLYHGPNRDSRARVLSTYDIVITTYSLVAKEIPTNKQEAEIPGANLNVEGTSTPLLRIAWARIILDEAHNVKNPRVQTSIAVCKLQACARWAVTGTPIQNNLLDMYSLLKFLRCSPFDEFNLWRSQVDNGSKKGGERLSILTKSLLLRRTKDQLDSTGRPLVILPQRKFQLHHLKLSEDEETVYNVFFARSRSALQSYLKRHESRGNQSGRSPNNPFSRVALEFGSEEPRHSEAADSPRSSTVHILSQLLRLRQCCCHLSLLKSALDPMELKGEGLVLSLEEQLSALTLSELRDSEPSSTVSLNGTFFKMELFEGMRESTKISSLLAELEAIQRNSASQKSVIVSQWTNMLKVVALHLKKHGLTYATIDGSVNPKQRMDLVEAFNHSRGPQVMLISLLAGGVGLNLTGGNHLFLLDMHWNPSLEDQACDRIYRVGQQKDVVIHRFVCEGTVEEKILQLQEKKKDLAKQVLSGSGESVTKLTLADLRVLFGI
23 µM	–	HA-ERCC6L, full length, intact NPF motif, Q2NKX8 NPF to KAF (protein) MEASRRFPEAEALSPEQAAHYLRYVKEAKEATKNGDLEEAFKLFNLAKDIFPNEKVLSRIQKIQEALEELAEQGDDEFTDVCNSGLLLYRELHNQLFEHQKEGIAFLYSLYRDGRKGGILADDMGLGKTVQIIAFLSGMFDASLVNHVLLIMPTNLINTWVKEFIKWTPGMRVKTFHGPSKDERTRNLNRIQQRNGVIITTYQMLINNWQQLSSFRGQEFVWDYVILDEAHKIKTSSTKSAICARAIPASNRLLLTGTPIQNNLQELWSLFDFACQGSLLGTLKTFKMEYENPITRAREKDATPGEKALGFKISENLMAIIKPYFLRRTKEDVQKKKSSNPEARLNEKNPDVDAICEMPSLSRKNDLIIWIRLVPLQEEIYRKFVSLDHIKELLMETRSPLAELGVLKKLCDHPRLLSARACCLLNLGTFSAQDGNEGEDSPDVDHIDQVTDDTLMEESGKMIFLMDLLKRLRDEGHQTLVFSQSRQILNIIERLLKNRHFKTLRIDGTVTHLLEREKRINLFQQNKDYSVFLLTTQVGGVGLTLTAATRVVIFDPSWNPATDAQAVDRVYRIGQKENVVVYRLITCGTVEEKIYRRQVFKDSLIRQTTGEKKNPFRYFSKQELRELFTIEDLQNSVTQLQLQSLHAAQRKSDIKLDEHIAYLQSLGIAGISDHDLMYTCDLSVKEELDVVEESHYIQQRVQKAQFLVEFESQNKEFLMEQQRTRNEGAWLREPVFPSSTKKKCPKLNKPQPQPSPLLSTHHTQEEDISSKMASVVIDDLPKEGEKQDLSSIKVNVTTLQDGKGTGSADSIATLPKGFGSVEELCTNSSLGMEKSFATKNEAVQKETLQEGPKQEALQEDPLESFNYVLSKSTKADIGPNLDQLKDDEILRHCNPWPIISITNESQNAESNVSIIEIADDLSASHSALQDAQASEAKLEEEPSASSPQYACDFNLFLEDSADNRQNFSSQSLEHVEKENSLCGSAPNSRAGFVHSKTCLSWEFSEKDDEPEEVVVKAKIRSKARRIVSDGEDEDDSFKDTSSIKAFNTSLFQFSSVKQFDASTPKNDISPPGRFFSSQIPSSVNKSMNSRRSLASRRSLINMVLDHVEDMEERLDDSSEAKGPEDYPEEGVEESSGEASKYTEEDPSGETLSSENKSSWLMTSKPSALAQETSLGAPEPLSGEQLVGSPQDKAAEATNDYETLVKRGKELKECGKIQEALNCLVKALDIKSADPEVMLLTLSLYKQLNNN
